The source of these data is patent US12565517B2, “Cyclic peptide having CTLA-4 inhibitory activity and use thereof” (GeneFrontier Corporation, priority 2019, dated 2026).

Where a SMILES comes first, the peptide text is derived from it. Bridges are numbered along the chain shown (N, C = ends). The star is where a group is joined. Biotin = O=C1N[C@H]2[C@H](CS[C@H]2CCCCC(=O)*)N1; PEG4 = NCCOCCOCCOCCOCCC(=O)O

For one assay, the target named is T1, CTLA-4 (Homo sapiens, UniProt P16410).
T1 sequence (P16410 36-223): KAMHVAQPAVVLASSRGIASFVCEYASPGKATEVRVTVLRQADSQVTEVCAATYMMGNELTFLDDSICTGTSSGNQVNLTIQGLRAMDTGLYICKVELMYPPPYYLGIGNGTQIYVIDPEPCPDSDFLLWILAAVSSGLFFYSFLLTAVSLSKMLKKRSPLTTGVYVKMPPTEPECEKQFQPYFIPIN
Nature of the assay: ELISA binding of clones after Affinity Maturation with random library (Tables 10, 11). The settings on record: CTLA-4 binding ELISA of clones after Affinity Maturation from random (NNS) library; signal/noise ratio; clones of 4th or 5th round. On the procedure: After each round of Affinity Maturation, the cyclic peptide genes were recovered and subcloned into pET-Mal vector (FIG. 2) in the same manner as described above to perform base sequence analysis. For the 94 single colonies analyzed for sequence, E. coli transformants were inoculated into 100 μL of 2×YT medium containing ampicillin (final concentration 50 μg/mL), incubated at 37° C. for 3-5 hours (OD600=0.5-0.8), then added with IPTG (final concentration 0.5 mM) and incubated at 25° C. overnight. 10 μL of E. coli cultured medium was added with 90 μL of PBS and 40 μL of lysis reagent (20 μL BugBuster Protein Extraction Reagent (Novagen), 20 μL Lysozyme solution 2.5 mg/mL) to lyse E. coli cells for 1 hour at room temperature. The cell lysate was added with 40 μL of 12.5% skim milk solution (TBST) and blocked for 1 hour at room temperature. In parallel, antigen protein was immobilized overnight at 4° C. in 384-well plates at 100 ng/20 μL per well, and each well was washed twice with 100 μL/well of TBST, added with 100 μL/well of 5% skim milk solution (TBST) for blocking for 1 hour at room temperature, and washed twice with 100 μL/well of TBST to obtain antigen-immobilized plates. 20 μL/well of blocking-treated E. coli extract was added to the antigen-immobilized plates and gently stirred at room temperature using a plate mixer. After 1 hour, the plates were washed 5 times with 100 μL/well of TBST, 20 μL/well of anti-FLAG M2-HRP conjugate (1:2000 dilution, Sigma) was added and gently stirred on a plate mixer for 1 hour at room temperature. The plates were washed 5 times with 100 μL/well of TBST, and binding of cyclic peptides to the antigen was detected by 20 μL/well of chromogenic substrate (0.4 mg/mL 3,3′,5,5′-Tetramethyl-benzidine, 0.01% hydrogen peroxide). After 15 minutes of reaction at room temperature, the reaction was stopped with 20 μL/well of 2N HCl, and absorbance at 450 nm was measured using a plate reader (infinite F200: TECAN) (Table 5).
Oligo DNAs of a library were synthesized (see below), in which amino acid residues (positions 1, 4, 8, 10, +1 and +2) (corresponding to X1, […], X8, X10, X+1 and X+2) other than those essential or advantageous for CTLA-4 binding (2H, 3P, 5L, 6P, 7I, 9S, 11H, 12F) identified by alanine scanning were randomized (NNS).
Affinity Maturation was performed in the same manner as described above. The amount of biotinylated CTLA-4 immobilized on the magnetic beads was 10 pmol in the 1st round, 2 pmol in the 2nd round, and 1 pmol in the 3nd-5th rounds, respectively. The washing period was 2 hours for the 1st round, 19 hours for the 2nd round, 67 hours for the 3nd round, 140 hours for the 4th round, and 340 hours for the 5th round. Washing frequency was 1 time (2 hours) in the 1st round, 2 times (every 10 hours) in the 2nd round, 6 times (every 10 hours) in the 3rd round, 14 times (every 10 hours) in the 4th round, and 36 times (every 10 hours) in the 5th round.
(In general: An ELISA detects its analyte on a solid surface through an enzyme-linked reagent.)
Take “C4m3127-4th-NNS6-12 (GGCSHPFLPIRSRHFCPF; C4m3127-4th-NNS6-12) [Clone C4m3127-4th-NNS6-12]”: the “ELISA S/N(SA)” value was found to be 15.8. “C4n#19-5th2w-NNS6-71 (GGCRHPYLPIASPHFCPG; left off: large carriers; small tags and cut ends)”: the “ELISA S/N(SA)” value stood at 22.9. Still for that read-out and setting: the result for “C4m#19-5th4w-NN6-34 (GGCFHPFLPIRSDHFCSR; C4m#19-5th4w-NN6-34)” reads 32.2; that for “C4m#19-5th2w-NNS6-53 (GGCLHPWLPIRSFHFCGA; C4m#19-5th2w-NNS6-53)”, 11.4. Regarding “C4m#19-5th4w-NN6-68 (GGCLHPWLPIRSRHFCSR; C4m#19-5th4w-NN6-68)”, the “ELISA S/N(SA)” value came out at 24.7. On the same count and under the same terms, the result for “C4m#19-5th2w-NNS6-37 (GGCIHPFLPIWSIHFCSR; C4m#19-5th2w-NNS6-37)” reads 9.4; that for “C4m3127-4th-NNS6-48 (GGCFHPWLPIASWHFCGR; C4m3127-4th-NNS6-48) [Clone C4m3127-4th-NNS6-48]”, 13.5.

On to “C4m#19-5th4w-NN6-65 (GGCWHPFLPILSLHFCSR; C4m#19-5th4w-NN6-65)”, for which the “ELISA S/N(SA)” value came to 12.5. Still for that read-out and setting: the result for “C4m#19-5th2w-NNS6-94 (GGCFHPYLPISSVHFCGR; C4m#19-5th2w-NNS6-94)” reads 22.4; that for “C4m3127-4th-NNS6-89 (GGCWHPFLPIFSAHFCMR; C4m3127-4th-NNS6-89) [Clone C4m3127-4th-NNS6-89]”, 6.6. As for “C4m#19-5th2w-NNS6-46 (GGCFHPFLPIFSYHFCGL; C4m#19-5th2w-NNS6-46)”, the “ELISA S/N(SA)” value worked out at 6.1. The same measure, in the same setting: the result for “C4m#19-6th4w-NN6-5-3 (GGCWHPFLPILSLHFCGW; left off: large carriers; small tags and cut ends)” reads 14.7.

As to “C4m#19-5th4w-NN6-51 (GGCWHPYLPIVSWHFCSR; C4m#19-5th4w-NN6-51)”, the “ELISA S/N(SA)” value turned out to be 22.1. For “C4m#19-5th2w-NNS6-4 (GGCFHPWLPISSLHFCPF; C4m#19-5th2w-NNS6-4)”, the “ELISA S/N(SA)” value is given as 6.3. Consider “C4m#19-5th4w-NN6-49 (GGCMHPYLPIRSFHFCSC; C4m#19-5th4w-NN6-49)”, for which the “ELISA S/N(SA)” value was found to be 4.0. Still for that read-out and setting: then “C4m#19-5th4w-NN6-91 (GGCMHPYLRIISPHFCRG; C4m#19-5th4w-NN6-91)”, with 30.0; and “C4m#19-5th2w-NNS6-22 (GGCMHPFLPIQSVHFCSR; C4m#19-5th2w-NNS6-22)”, with 29.3. Same read-out and setting: the result for “C4m#19-5th2w-NNS6-61 (GGCCHPWLPIRSVHFCPF; C4m#19-5th2w-NNS6-61)” reads 4.3; that for “C4m3127-4th-NNS6-17 (GGCRHPVLPIVSLHFCPG; C4m3127-4th-NNS6-17) [Clone C4m3127-4th-NNS6-17]”, 20.4; that for “C4m#19-5th2w-NNS6-34 (GGCCHPFLPIYSVHFCAS; C4m#19-5th2w-NNS6-34)”, 5.0. Still for that read-out and setting: the result for “C4m#19-5th2w-NNS6-33 (GGCRHPFLPIWSFHFCWG; C4m#19-5th2w-NNS6-33)” reads 9.4; that for “C4m3127-4th-NNS6-66 (GGCAHPHLPIRSVHFCSF; C4m3127-4th-NNS6-66) [Clone C4m3127-4th-NNS6-66]”, 4.8; that for “C4m#19-5th2w-NNS6-80 (GGCLHPFLPIVSWHFCPC; C4m#19-5th2w-NNS6-80)”, 3.6. “C4m#19-5th2w-NNS6-86 (GGCFHPYLPIWSLHFCRS; C4m#19-5th2w-NNS6-86)”: the “ELISA S/N(SA)” value is on record as 7.7.

With “C4m3127-4th-NNS6-90 (GGCKHPVLPIVSLHFCPW; C4m3127-4th-NNS6-90) [Clone C4m3127-4th-NNS6-90]”, the “ELISA S/N(SA)” value stood at 22.9. Consider “C4m#19-5th2w-NNS6-70 (GGCRHPFLPIVSWHFCAA; C4m#19-5th2w-NNS6-70)”, for which the “ELISA S/N(SA)” value is recorded as 5.1. For the compound “C4m#19-5th4w-NN6-63 (GGCWHPYLPILSRHFCQA; C4m#19-5th4w-NN6-63)”, the “ELISA S/N(SA)” value is recorded as 16.5. Turning to “C4m#19-5th4w-NN6-44 (GGCRHPFLPIVSWHFCGR; C4m#19-5th4w-NN6-44)”, the “ELISA S/N(SA)” value was determined as 30.1. Same read-out and setting: the result for “C4m#19-5th4w-NN6-32 (GGCPHPFLPIWSVHFCPF; C4m#19-5th4w-NN6-32)” reads 27.2; that for “C4m#19-5th2w-NNS6-45 (GGCRHPFLPIWSVHFCWR; C4m#19-5th2w-NNS6-45)”, 11.0; that for “C4m#19-5th4w-NN6-82 (GGCFHPFLPIRSLHFCCR; C4m#19-5th4w-NN6-82)”, 28.3. The same measure, in the same setting: the result for “C4m#19-5th4w-NN6-72 (GGCWHPWLPIVSVHFCGC; C4m#19-5th4w-NN6-72)” reads 4.6.

The next assay concerns the target T1, CTLA-4. Kind of assay: Affinity measurement of synthetic biotinylated peptides by BLItz system (peptide on SA sensor chip). The settings on record: read-out: ka. Format: binding. The method, then: Affinity for CTLA-4 was measured using the BLItz system (forte Bio). All operations were performed according to the instruction manual of the BLItz system. The biotinylated peptides were immobilized on the SA sensor chip via streptavidin.
`CSCC[C@@H]1NC(=O)[C@@H](NC(=O)[C@H](CCCCN)NC(=O)CCOCCOCCOCCOCCNC(=O)CCCC[C@@H]2SC[C@@H]3NC(=O)N[C@@H]32)CSSC[C@@H](C(=O)O)NC(=O)[C@H](Cc2ccccc2)NC(=O)[C@H](Cc2c[nH]cn2)NC(=O)[C@H](Cc2c[nH]cn2)NC(=O)[C@H](CO)NC(=O)[C@H](C(C)C)NC(=O)[C@H](C(C)C)NC(=O)[C@H](CC(C)C)NC(=O)[C@H](CC(C)C)NC(=O)[C@H](Cc2ccccc2)NC(=O)[C@@H]2CCCN2C(=O)[C@H](Cc2c[nH]cn2)NC1=O` [biotinylated H12SSI-Ctla4-3-02] ({Biotin-PEG4}-KCMHPFLLVVSHHFC-OH; disulfide 2-15; C-terminus assumed): the kon came out at 115000 M⁻¹ s⁻¹.

Still in this assay, the particulars now being: synthetic Biotin-PEG4-Lys peptide immobilized; BLItz.
`CSCC[C@@H]1NC(=O)[C@@H](NC(=O)[C@H](CCCCN)NC(=O)CCOCCOCCOCCOCCNC(=O)CCCC[C@@H]2SC[C@@H]3NC(=O)N[C@@H]32)CSSC[C@@H](C(=O)O)NC(=O)[C@H](Cc2ccccc2)NC(=O)[C@H](Cc2c[nH]cn2)NC(=O)[C@H](Cc2c[nH]cn2)NC(=O)[C@H](CO)NC(=O)[C@H](C(C)C)NC(=O)[C@H](C(C)C)NC(=O)[C@H](CC(C)C)NC(=O)[C@H](CC(C)C)NC(=O)[C@H](Cc2ccccc2)NC(=O)[C@@H]2CCCN2C(=O)[C@H](Cc2c[nH]cn2)NC1=O` [biotinylated H12SSI-Ctla4-3-02] ({Biotin-PEG4}-KCMHPFLLVVSHHFC-OH; disulfide 2-15; C-terminus assumed) gave a kd of 0.022 s⁻¹.
